B1: recombinant WSTF 1-359 C338A point mutant (protein)
chain: MAPLLGRKPFPLVKPLPGEEPLFTIPHTQEAFRTREEYEARLERYSERIWTCKSTGSSQLTHKEAWEEEQEVAELLKEEFPAWYEKLVLEMVHHNTASLEKLVDTAWLEIMTKYAVGEECDFEVGKEKMLKVKIVKIHPLEKVDEEATEKKSDGACDSPSSDKENSSQIAQDHQKKETVVKEDEGRRESINDRARRSPRKLPTSLKKGERKWAPPKFLPHKYDVKLQNEDKIISNVPADSLIRTERPPNKEIVRYFIRHNALRAGTGENAPWVVEDELVKKYSLPSKFSDFLLDPYKYMTLNPSTKRKNTGSPDRKPSKKSKTDNSSLSSPLNPKLWAHVHLKKSLSGSPLKVKNSKNS
B2: recombinant WSTF 1-340 construct (protein)
chain: MAPLLGRKPFPLVKPLPGEEPLFTIPHTQEAFRTREEYEARLERYSERIWTCKSTGSSQLTHKEAWEEEQEVAELLKEEFPAWYEKLVLEMVHHNTASLEKLVDTAWLEIMTKYAVGEECDFEVGKEKMLKVKIVKIHPLEKVDEEATEKKSDGACDSPSSDKENSSQIAQDHQKKETVVKEDEGRRESINDRARRSPRKLPTSLKKGERKWAPPKFLPHKYDVKLQNEDKIISNVPADSLIRTERPPNKEIVRYFIRHNALRAGTGENAPWVVEDELVKKYSLPSKFSDFLLDPYKYMTLNPSTKRKNTGSPDRKPSKKSKTDNSSLSSPLNPKLWCHV
B3: recombinant full length human WSTF (Flag-epitope-tagged at C terminus) (protein)
chain: MAPLLGRKPFPLVKPLPGEEPLFTIPHTQEAFRTREEYEARLERYSERIWTCKSTGSSQLTHKEAWEEEQEVAELLKEEFPAWYEKLVLEMVHHNTASLEKLVDTAWLEIMTKYAVGEECDFEVGKEKMLKVKIVKIHPLEKVDEEATEKKSDGACDSPSSDKENSSQIAQDHQKKETVVKEDEGRRESINDRARRSPRKLPTSLKKGERKWAPPKFLPHKYDVKLQNEDKIISNVPADSLIRTERPPNKEIVRYFIRHNALRAGTGENAPWVVEDELVKKYSLPSKFSDFLLDPYKYMTLNPSTKRKNTGSPDRKPSKKSKTDNSSLSSPLNPKLWCHVHLKKSLSGSPLKVKNSKNSKSPEEHLEEMMKMMSPNKLHTNFHIPKKGPPAKKPGKHSDKPLKAKGRSKGILNGQKSTGNSKSPKKGLKTPKTKMKQMTLLDMAKGTQKMTRAPRNSGGTPRTSSKPHKHLPPAALHLIAYYKENKDREDKRSALSCVISKTARLLSSEDRARLPEELRSLVQKRYELLEHKKRWASMSEEQRKEYLKKKREELKKKLKEKAKERREKEMLERLEKQKRYEDQELTGKNLPAFRLVDTPEGLPNTLFGDVAMVVEFLSCYSGLLLPDAQYPITAVSLMEALSADKGGFLYLNRVLVILLQTLLQDEIAEDYGELGMKLSEIPLTLHSVSELVRLCLRRSDVQEESEGSDTDDNKDSAAFEDNEVQDEFLEKLETSEFFELTSEEKLQILTALCHRILMTYSVQDHMETRQQMSAELWKERLAVLKEENDKKRAEKQKRKEMEAKNKENGKVENGLGKTDRKKEIVKFEPQVDTEAEDMISAVKSRRLLAIQAKKEREIQEREMKVKLERQAEEERIRKHKAAAEKAFQEGIAKAKLVMRRTPIGTDRNHNRYWLFSDEVPGLFIEKGWVHDSIDYRFNHHCKDHTVSGDEDYCPRSKKANLGKNASMNTQHGTATEVAVETTTPKQGQNLWFLCDSQKELDELLNCLHPQGIRESQLKERLEKRYQDIIHSIHLARKPNLGLKSCDGNQELLNFLRSDLIEVATRLQKGGLGYVEETSEFEARVISLEKLKDFGECVIALQASVIKKFLQGFMAPKQKRRKLQSEDSAKTEEVDEEKKMVEEAKVASALEKWKTAIREAQTFSRMHVLLGMLDACIKWDMSAENARCKVCRKKGEDDKLILCDECNKAFHLFCLRPALYEVPDGEWQCPACQPATARRNSRGRNYTEESASEDSEDDESDEEEEEEEEEEEEEDYEVAGLRLRPRKTIRGKHSVIPPAARSGRRPGKKPHSTRRSQPKAPPVDDAEVDELVLQTKRSSRRQSLELQKCEEILHKIVKYRFSWPFREPVTRDEAEDYYDVITHPMDFQTVQNKCSCGSYRSVQEFLTDMKQVFTNAEVYNCRGSHVLSCMVKTEQCLVALLHKHLPGHPYVRRKRKKFPDRLAEDEGDSEPEAVGQSRGRRQKK
B4: recombinant WSTF 1-345 construct (protein)
chain: MAPLLGRKPFPLVKPLPGEEPLFTIPHTQEAFRTREEYEARLERYSERIWTCKSTGSSQLTHKEAWEEEQEVAELLKEEFPAWYEKLVLEMVHHNTASLEKLVDTAWLEIMTKYAVGEECDFEVGKEKMLKVKIVKIHPLEKVDEEATEKKSDGACDSPSSDKENSSQIAQDHQKKETVVKEDEGRRESINDRARRSPRKLPTSLKKGERKWAPPKFLPHKYDVKLQNEDKIISNVPADSLIRTERPPNKEIVRYFIRHNALRAGTGENAPWVVEDELVKKYSLPSKFSDFLLDPYKYMTLNPSTKRKNTGSPDRKPSKKSKTDNSSLSSPLNPKLWCHVHLKKS
B5: co-expressed N-motif and C-motif of the WSTF kinase domain (protein)
chain 1: MAPLLGRKPFPLVKPLPGEEPLFTIPHTQEAFRTREEYEARLERYSERIWTCKSTGSSQLTHKEAWEEEQEVAELLKEEFPAWYEKLVLEMVHHNTASLEKLVDTAWLEIMTKYAVGEECDFEVGKEKMLKVKIVKIHPLEKVDEEATEKKSDGACDSPSSDKENSSQIAQDHQKKETVVKEDEGRRESINDRARRSPRKLPTSL
chain 2: GERKWAPPKFLPHKYDVKLQNEDKIISNVPADSLIRTERPPNKEIVRYFIRHNALRAGTGENAPWVVEDELVKKYSLPSKFSDFLLDPYKYMTLNPSTKRKNTGSPDRKPSKKSKTDNSSLSSPLNPKLWCHVHLKKS

Assays:
[1] = target: recombinant H2A.X (WT), N-terminal 6xHis tag
[2] = target: recombinant H2A.X Y142F, N-terminal 6xHis tag

Protein | kinase activity (in vitro kinase assay) [1] | further results
B1 | the activity of a point mutant at C338 (C338A) was greatly diminished (<50 fold, FIG. 3F) | –
B2 | the activity of the 1-340 amino acid construct was much reduced (<50 fold) in comparison to the other constructs | –
B3 | – | in vitro kinase assay (32P autoradiography) [2]: WSTF phosphorylated the WT but not Y142F H2A.X; in vitro kinase assay [1]: Full length recombinant WSTF proteins isolated from insect cells phosphorylated free H2A.X protein in the presence of Mn^2+; in vitro kinase assay (32P autoradiography) [1]: The recombinant full length WSTF protein phosphorylated H2A.X-containing nucleosomes
B4 | the 1-345 amino acid construct of WSTF had much more potent kinase activity (>50 fold) than the 1-340 construct | in vitro kinase assay [2]: its activity towards a Y142F mutant was much reduced
B5 | The co-expressed N-motif and C-motif had significant kinase activity towards H2A.X | –

— patent US20100080799
